Assay: yeast display, Sf9 membrane polyspecificity reagent, FACS + sequencing; frameworks hold sequencing errors
Procedure, shortened: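 Synthetic nanobody libraries on Saccharomyces cerevisiae BJ5465 were galactose-induced for 36–48 hours, stained 1 hour at 4 °C with 10% biotinylated, detergent-solubilized Sf9 membrane reagent and enriched on streptavidin microbeads. FACS then separated cells into low and high (top ~1%) gates by anti-HA (expression) and streptavidin (reagent binding) fluorescence. Genes were colony-PCR amplified, MiSeq 2 × 250 sequenced and CDR-length filtered. A clone's polyreactivity label is that of its gate of origin.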

Row | Sequence | polyreactivity (PSR sort gate)
1 | QVQLVESGGGLVQAGGSLRLSCAASGIIFLDYVMGWYRQAPGKERELVAAISRSGGTTYYADSVKGRFTISRDNAKNTVYLQMNSLKPEDTAVYYCAVRSYRDTRFYYWGQGTQVTVSS | high polyreactivity
2 | QVQLVESGGGLVQAGGSLRLSCAASGIIFLFYAMGWYSQAPGKERELVGSITWSGGSTYYADSVKGRFTISRDTAKNTVYLQMNRLKPEDTAVYYCAASVKIISYLGQSEFLGGELDYWGQGTQVTVSS | low polyreactivity
3 | QVQLVESGGGLVQAGGSLRLSCAASGIIFLVYAMGWSRQAPGKEGQLVAGISGSATSTNYADSVKGRFTISRDNAKNTVYLEMNSLKPEDTAVYYCAASYYGYYVPDNSKYGYWGQGTQVTVSS | low polyreactivity
4 | QVQLVESGGGLVQAGGSLRLSCAASGIIFLVYAMGWYRQAPGKERELVAGISGSATSTNYADSVKGRFTISRDNAKNTVYLQMNSLKPEETAVYYCAASYYGYYVPDNSKYGYWGQGTQVTVSS | low polyreactivity
5 | QVQLVESGGGLVQAGGSLRLSCAASGIIFLVYARGWYRKAPGKVRELVAGISGSATSTNYADSVKGRFTISRDNAKNTVFLQMNSLKPEDTAVYYCAPEPDHVADSHSGYDYWGQGTQVTVSS | low polyreactivity
6 | QVQLVESGGGLVQAGGSLRLSCAASGIIFLWYAMGWYRQAPWKERELVAAISRTGSSTYYADSVKGRFTISRDNAKNTVYLQMNSLKPEDTAVYYCAAAYYSKRSWRFDYWGQGTQVTVSS | high polyreactivity
7 | QVQLVESGGGLVQAGGSLRLSCAASGIIFLYYAMGWYRQAPGKEREFVAAISWSGGRTYYADSVKGRFTISRDNAKNTVYLQMNSLKPEDTAVYYCAATYALRKTGYDYWGQGTQVTVSS | high polyreactivity
8 | QVQLVESGGGLVQAGGSLRLSCAASGIIFLYYAMGWYRQAPGKERELVAAISSGGSTYYADSVKGRFTISRDNAKNTVYLQMNSLKPEDTAVYYCAARPRKSRAYTALGDYWGQGTQVTVSS | high polyreactivity
9 | QVQLVESGGGLVQAGGSLRLSCAASGIIFNDYAMGWYRQAPGNERELVATISWSGGSTYADSVKGLFTISRDNAKNTVYLQMNSLKPEDTAVYYCANQPTVYHHYGLGYWGQGTQVTVSS | low polyreactivity
10 | QVQLVESGGGLVQAGGSLRLSCAASGIIFNRYAMGRYRQAPGKERELVASITSSGGSTHYADSVKGRFTISRDNAKNTVYLQMNSLKPEDTAVYYCAKQFPNNYRYYLHYYYWGQGTQVTVSS | low polyreactivity
11 | QVQLVESGGGLVQAGGSLRLSCAASGIIFNTYAMGWYRPAPGKERELVAGIDYSGGGTSYADSVKGRFTISRDNAKNTVYLQMNSLKPEDTAVYYCAADAYSGAYFTYLGEIYDYWGQGTQVTVSS | low polyreactivity
12 | QVQLVESGGGLVQAGGSLRLSCAASGIIFNYNAMGWYRQAPGKERELVASISSSGGNTYYADSVKGRFTISRDNAKNTVYLQMNSLKPEDTAVYYCAARYVGWRLKRWYEYWGQGTQVTVSS | high polyreactivity
13 | QVQLVESGGGLVQAGGSLRLSCAASGIIFPGNAMGWYRQAPGKERELVAAISSGGNTKYADSVKGRFTISRDNAKNTGYLQMNSLKPEDTAVYYCAADGASRALYDYWGQGTQVTVSS | high polyreactivity
14 | QVQLVESGGGLVQAGGSLRLSCAASGIIFPIYAMGWYRQAPGPERELVAAIDINGGRTYYADSVKGRFTISRDNAKNTVYLPMNSLKPEDTAVYYCNAEGGSYARLYGNYEYWGQGTQVTVSS | low polyreactivity
15 | QVQLVESGGGLVQAGGSLRLSCAASGIIFPRYAMGWYIQAPGKERELVAAITKRGGSTYYADSVKGRFTISRDNANNTVYLQMNSLKPEDTAVYYCARVWSRRYGGWYRNYDYWGQGTKVTVSS | high polyreactivity
16 | QVQLVESGGGLVQAGGSLRLSCAASGIIFPRYAMGWYRQAPGKERELVAAITKRGGSTYYADSVKGRFTISRDNAKNTVYLQMNSLKPEDTAVYYCAADDNSGYYYWGQGTQVTVSS | high polyreactivity
17 | QVQLVESGGGLVQAGGSLRLSCAASGIIFPRYTMGSYRQAPGKERELVAAISWRGGRTYYADSVKGRFTISRDNAKNTVYLQMNSLKPEDTAVYYCAAEFVHSYSYAYDYWGQGTQVTVSS | high polyreactivity
18 | QVQLVESGGGLVQAGGSLRLSCAASGIIFPSYAMGWYRQAPGKERELVADISNDDSTNYADSVKGRFTISRDNAKNTVYLQMNSLKPEDTAVYYCNAEEWGFWWRYDYWGQGTQVTVSS | high polyreactivity
19 | QVQLVESGGGLVQAGGSLRLSCAASGIIFPSYVMGWYRPAPGKERELVARISARGGRTYYADSVKGRFTISRDNAKNTVYLQMNSLKPEDTAVYYCAARWGITTWYDYWGQGTQVTVSS | high polyreactivity
20 | QVQLVESGGGLVQAGGSLRLSCAASGIIFPTYAMGWYRQAPGKERELVAAISVSGGTTSYADSVKGRFTISRDNAKNTVYLQMNSLKPEDTAVYYCAARKYSYPVAAHYYWGQGTQVTVSS | high polyreactivity
21 | QVQLVESGGGLVQAGGSLRLSCAASGIIFPYYAMGWYRQATGKERELVAAITRGGITYYADSVKGRFTISRDNAKNTVYLQMNSLKPEDTAVYYCAARLRGSYDYWGQGTQVTVSS | high polyreactivity
22 | QVQLVESGGGLVQAGGSLRLSCAASGIIFPYYTMGWYRQAPGKERELVARITNGGRTYYADSVNGRFTISRDNAKNTVYLQMNSLKPEDTAVYYCNAGRYYIGGYWGQGTQVTVSS | high polyreactivity

Row | Sequence | polyreactivity (PSR sort gate)
23 | QVQLVESGGGLVQAGGSLRLSCAASGIIFQAYAMGWYRQAPGKERELVAAISYSGGSTYYADSVKGRFTISRDNAKNTVYLQMNCLKPEDTAVYYCAATFYGYFDSVFSWGYYYWGQGTQVTVSS | low polyreactivity
24 | QVQLVESGGGLVQAGGSLRLSCAASGIIFQFYAMGWYRQAPGKEREFVAAISARSGRTYYADSVKGRFTISRDNAKNTVYLQMNSLKPEDTAVYYCNTAYAYSGRYDYWGQGTQVTVSS | high polyreactivity
25 | QVQLVESGGGLVQAGGSLRLSCAASGIIFQRNDMGWYRQAPGKERELVANIRDGGITYADSVKGRFTISRDNAKNTVYLQMNSLKPEDTAVYYCARDDTSPGYGDQSSNAAYYYWGQGTQVTVSS | low polyreactivity
26 | QVQLVESGGGLVQAGGSLRLSCAASGIIFQSYTMGWYRQAPGKVRELVAAIDSGGSTYYADSVKGRFTISRDNAKNTVYLQMNSLKPEDTAVYYCAAEPDTYWYTYDYWGQGTQVTVSS | low polyreactivity
27 | QVQLVESGGGLVQAGGSLRLSCAASGIIFRAYAMGWYRPAPGKETEFVADISYSGGRTYYADSVKGRFTISRDNAKNTVYLPLNSLKPEDTAVYYCGARKLYGSPEHGYWGQGTQVTVSS | high polyreactivity
28 | QVQLVESGGGLVQAGGSLRLSCAASGIIFRFYAMGWYRQAPGKERELVAAITSSGGSTYYADSVKGRFTISRDNAKNTVYLQMNSLKPEDTAVYYCATSTGPYRGRFYYWGQGTQVTVSS | high polyreactivity
29 | QVQLVESGGGLVQAGGSLRLSCAASGIIFRGNAMGWYRQAPGKERELVAAISKSGGRTYYADSVKGRFTISRDNAKNTVYLQMNSLKPEDTAVYYCAASYYAVGGYDYWGQGTQVTVSS | high polyreactivity
30 | QVQLVESGGGLVQAGGSLRLSCAASGIIFRGYAMGWDRQAPGQERELVAVIDRSGARTNYADSVTGRFTISRDNAKNTVYLQMNSLKPEDTAVYYCAASGVRAYSGLGYWGQGSQVTVSS | high polyreactivity
31 | QVQLVESGGGLVQAGGSLRLSCAASGIIFRGYAMGWYRLAPGKERELVAAINQDSGNTYYADSVKGRFTISRDNAKKTVYLQMNSLKPEDTAVYYCAASSRLNRWNYYAFDYWGQGTQVTVSS | high polyreactivity
32 | QVQLVESGGGLVQAGGSLRLSCAASGIIFRGYVMGWYRQAPGKERELVAAISTSGGRTSYADSVKGRFTISRDNAKNTVYLQMNSLKPEDTAVYYCAADSGYRYYTKSVGYDYWGQGTQVTVSS | high polyreactivity
33 | QVQLVESGGGLVQAGGSLRLSCAASGIIFRGYVMGWYRQAPGKERELVADISRGGSTYYADSVKGRFTISRDNAKNTVYLQMNSLKPEDTAVYYCATAGPLWFYWGYDYWGQGTQVTVSS | low polyreactivity
34 | QVQLVESGGGLVQAGGSLRLSCAASGIIFRLYGMGWYRPAPGKAREFVATITWRGGRTNYADSVKGRFTISRDNAKNTVYLLMNSRKPEDTADYYCAKDVRYARSNEYDSWGQGTQVTVSS | low polyreactivity
35 | QVQLVESGGGLVQAGGSLRLSCAASGIIFRNYAMGWYRQAPGKERELVATIRYRGGRTYADSVKGRFTISRDNAKNTVYLQMNSLKPEDTAVYYCNARRLSVYGDYDYWGQGTQVTVSS | high polyreactivity
36 | QVQLVESGGGLVQAGGSLRLSCAASGIIFRPYAMGWYRQAPGKERELVAAITGSGVSTYYADSVKGRFTISRDNAKNTVYLQMNCQKPEDTAVYYCAKRYNRGYHRYDYWGQGTQVTVSS | low polyreactivity
37 | QVQLVESGGGLVQAGGSLRLSCAASGIIFRPYAMGWYRQAPGKERELVASITLSGGSTYYADSVKGRFTISRDNAKNTVYLQMNSLKPEDTAVYYCNRYPRLRVVPSRYVKYDYWGQGTQVTVSS | low polyreactivity
38 | QVQLVESGGGLVQAGGSLRLSCAASGIIFRRYAMGWYRQAPGKERELVAAITGRGGSTYYADSVKGRFTISRDNAKNTVYLQMNSLKPEDTAVYYCAADVYTGDYDSWGQGTQVTVSS | high polyreactivity
39 | QVQLVESGGGLVQAGGSLRLSCAASGIIFRSYAMGWYRQAPGKERELVAAITSGGSTNYADSVKGRFTISRDNAKNTVYLQMHSLKPEDTAVYYCAARWPWYGKLRYYYWGQGTQVTVSS | high polyreactivity
40 | QVQLVESGGGLVQAGGSLRLSCAASGIIFRYNALGWYRQAPGKERELVSPISVSGGSTYYADSVKGRFTISRDNAKNTVYLQMNSLQPEDTAVYYCAALLYRYGVHQAEHDYWGQGTQVTVSS | high polyreactivity
41 | QVQLVESGGGLVQAGGSLRLSCAASGIIFRYYAMGWYRQAPGKERELVAAITVNGGRTYYADSVKGRFTISRDNAKNTVYLQMNSLKPEDTAVYYCAAYPHRYRVTPYPSVVSLDNYWGQGTQVTVSS | low polyreactivity
42 | QVQLVESGGGLVQAGGSLRLSCAASGIIFRYYAMGWYRQAPGKEREWVAAISSSGVSTYYADSVKGRFTISRDNAKNNVYLQMNSLKPEDTAVYYCAAVTTWRMDYWGQGTQVTVSS | high polyreactivity
43 | QVQLVESGGGLVQAGGSLRLSCAASGIIFSDYAMGWYRQAPGKERELVAAISSNAGTTSYADSVKGRFTISRDNAKNTVYLQMNSLKPEDTAVYYCNADSSYPPGYDYCGQGTQVTVSS | low polyreactivity

From the nanobody polyreactivity screen of Harvey et al. (2022)
